Values of other authors, collected in article PMC3511906.
Like-named read-outs stand apart in the source and are kept apart here.

Experiments:
[1] = target: CXCR1 (Mus musculus) (UniProt Q810W6)
[2] = target: CXCR1 (Mus musculus) (UniProt Q810W6); remark: listed apart in the source
[3] = target: CXCR2 (Mus musculus) (UniProt P35343)
Sequence of CXCR2 (Mus musculus) (P35343 whole entry): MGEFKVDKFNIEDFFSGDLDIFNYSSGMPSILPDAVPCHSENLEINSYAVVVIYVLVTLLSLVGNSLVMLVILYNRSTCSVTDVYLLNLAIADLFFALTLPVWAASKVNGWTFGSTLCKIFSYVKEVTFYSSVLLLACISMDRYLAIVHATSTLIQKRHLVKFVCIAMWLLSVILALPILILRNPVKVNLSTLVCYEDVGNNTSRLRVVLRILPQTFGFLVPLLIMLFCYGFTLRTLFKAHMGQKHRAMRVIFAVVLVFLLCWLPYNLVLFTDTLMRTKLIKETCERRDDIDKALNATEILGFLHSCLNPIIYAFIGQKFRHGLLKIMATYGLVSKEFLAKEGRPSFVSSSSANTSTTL

Sequence of CXCR1 (Mus musculus) (Q810W6 whole entry): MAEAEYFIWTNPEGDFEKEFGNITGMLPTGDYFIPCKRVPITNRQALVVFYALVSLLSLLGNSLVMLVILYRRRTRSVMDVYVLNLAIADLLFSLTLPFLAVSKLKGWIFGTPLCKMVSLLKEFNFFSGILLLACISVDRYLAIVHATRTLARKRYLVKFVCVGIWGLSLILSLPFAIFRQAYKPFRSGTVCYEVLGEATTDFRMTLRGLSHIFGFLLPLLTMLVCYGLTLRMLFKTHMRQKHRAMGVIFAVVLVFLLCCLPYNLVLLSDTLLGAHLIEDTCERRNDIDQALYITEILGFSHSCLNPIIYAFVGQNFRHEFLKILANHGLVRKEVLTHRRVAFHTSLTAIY
Sequence of MIP-2 (P10889 28-100): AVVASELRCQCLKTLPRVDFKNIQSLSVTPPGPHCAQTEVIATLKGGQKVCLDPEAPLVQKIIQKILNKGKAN
Sequence of CXCL8 (P10145 28-99): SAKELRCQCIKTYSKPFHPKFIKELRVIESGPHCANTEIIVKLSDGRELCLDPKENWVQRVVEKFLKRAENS

| Substance | Kd [1] [µM] | Kd [2] [µM] | Kd [3] [µM] |
| --- | --- | --- | --- |
| CXCL8 (from UniProt P10145) | 0.01 | – | – |
| MIP-2 (from UniProt P10889) | – | 0.643 | 0.0035 |
